Assays:
Human Id1: Histidine [1] = biological target: T1, Human Id1: Histidine (human, UniProt P41134 1-155, limits assumed); assay: ELISA, positive control (stated to be BCH-4/6-1) 0.25 µg/ml
T1 construct: Fusion protein made in E. coli from vector pGW07; also called h-Id1: his; not shown: His tag
T1 sequence (looked up): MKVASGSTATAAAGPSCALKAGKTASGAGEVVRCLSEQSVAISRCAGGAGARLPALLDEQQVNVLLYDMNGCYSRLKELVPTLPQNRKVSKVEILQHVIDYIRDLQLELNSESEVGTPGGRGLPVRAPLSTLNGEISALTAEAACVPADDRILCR
Experimental: (§1) 1. Dispense 100 μL of antibody diluent, diluted rabbit monoclonal human Id3, and mouse/human Id3 hybridoma supernatants into appropriate wells. […] 2. Incubate at room temperature with mechanical shaking at 750 rpm for 90 minutes. [0165] 3. Remove the incubation mixture by flicking plate content into an appropriate waste container followed by rinsing the wells 5 times with distilled water. [0166] 4. Strike the wells sharply onto absorbent paper or paper towels to remove all residual water droplets. [0167] 5. Dispense 100 μL of 1:50,000 Goat Anti-Rabbit IgG-HRP Conjugate Reagent into each well. Gently mix for 5 seconds. [0168] 6. Incubate at room temperature with mechanical shaking at 750 rpm for 90 minutes. [0169] 7. Repeat procedures 3 and 4. [0170] 8. Dispense 100 μL of TMB Reagent into each well. Gently mix for 5 seconds. [0171] 9. Incubate at room temperature with mechanical shaking at 750 rpm for 20 minutes. […] 10. Add 100 μL of Stop Solution (1N HCl) into each well. [0173] 11. Gently mix for 10 seconds to ensure a complete mixing. [0174] 12. Read optical density at A450 nm.
(§2) The materials and method are the same as those described in Example 9 except the following.
(§3) Rabbit monoclonal anti-mouse Id3, hybridoma supernatant was used as the test antibody. Protein G purified, rabbit monoclonal anti-mouse/human Id3 antibody, BCH-4/6-1, 0.92 mg/ml in 0.25% BSA was used as positive controls.

Mouse Id2: Histidine [2] = biological target: T2, Mouse Id2: Histidine (mouse, UniProt P41136 1-134, limits assumed); assay: as above
T2 construct: Fusion protein made in E. coli from vector pGW07; also called m-Id2: His; not shown: His tag
T2 sequence (looked up): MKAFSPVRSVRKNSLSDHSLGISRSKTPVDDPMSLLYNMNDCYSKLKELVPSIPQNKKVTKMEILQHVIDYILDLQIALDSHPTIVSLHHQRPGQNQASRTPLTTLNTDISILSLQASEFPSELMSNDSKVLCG
Experimental: as §1, §2, §3

Human Id3: Histidine [3] = biological target: T3, Human Id3: Histidine (human, UniProt Q02535 1-119 at identity 1.00)); assay: as above
T3 construct: Fusion protein made in E. coli from vector pGW07; also called h-Id3: His; Human Id3 (coated wells); not shown: His tag
T3 chain: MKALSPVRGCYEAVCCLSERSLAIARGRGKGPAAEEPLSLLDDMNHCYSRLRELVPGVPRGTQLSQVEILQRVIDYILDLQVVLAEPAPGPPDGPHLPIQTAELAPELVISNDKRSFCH
Experimental: as §1, §2, §3

Human Id2: Histidine [4] = biological target: T4, Human Id2: Histidine (human, UniProt Q02363 1-134, limits assumed); assay: as above
T4 construct: Fusion protein made in E. coli from vector pGW07; also called h-Id2: His; not shown: His tag
T4 sequence (looked up): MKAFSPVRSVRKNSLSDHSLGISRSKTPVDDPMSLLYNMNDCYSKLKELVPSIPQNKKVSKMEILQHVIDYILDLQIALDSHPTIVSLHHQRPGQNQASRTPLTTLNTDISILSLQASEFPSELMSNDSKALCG
Experimental: as §1, §2, §3

Human Id1: Histidine [5] = biological target: T1, Human Id1: Histidine; assay: ELISA, Ab 0.100 µg/ml
Mouse Id1: Histidine [6] = biological target: T5, Mouse Id1: Histidine (mouse, UniProt P20067-2 1-148, limits assumed); assay: ELISA, Ab 0.100 µg/ml
T5 construct: Fusion protein made in E. coli from vector pGW07; also called m-Id1-His; not shown: His tag
T5 sequence (looked up): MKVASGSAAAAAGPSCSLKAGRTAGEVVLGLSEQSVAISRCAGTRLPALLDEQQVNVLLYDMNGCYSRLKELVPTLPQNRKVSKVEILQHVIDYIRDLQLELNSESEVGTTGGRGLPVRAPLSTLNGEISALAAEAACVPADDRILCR

Mouse Id2: Histidine [7] = biological target: T2, Mouse Id2: Histidine; assay: ELISA, Ab 0.100 µg/ml
Mouse Id3: Histidine = biological target: T6, Mouse Id3: Histidine (mouse, UniProt P41133 1-119); assay: ELISA, Ab 0.100 µg/ml
T6 construct: Fusion protein made in E. coli from vector pGW07; also called m-Id3: His; Mouse Id3 (coated wells); not shown: His tag
T6 sequence: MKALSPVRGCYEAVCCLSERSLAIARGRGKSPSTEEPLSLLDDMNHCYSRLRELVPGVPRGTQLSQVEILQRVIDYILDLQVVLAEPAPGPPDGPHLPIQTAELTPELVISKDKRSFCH

Human Id3: Histidine [8] = biological target: T3, Human Id3: Histidine; assay: ELISA, Ab 0.100 µg/ml
Human Id2: Histidine [9] = biological target: T4, Human Id2: Histidine; assay: ELISA, Ab 0.100 µg/ml
Human Id1: Histidine [10] = biological target: T1, Human Id1: Histidine; assay: ELISA, positive control (stated to be BCH-4/6-1) 0.50 µg/ml
Experimental: as §1, §2, §3

Mouse Id1: Histidine [11] = biological target: T5, Mouse Id1: Histidine; assay: as above
Experimental: as §1, §2, §3

Human Id3: Histidine [12] = biological target: T3, Human Id3: Histidine; assay: as above
Experimental: as §1, §2, §3

Human Id2: Histidine [13] = biological target: T4, Human Id2: Histidine; assay: as above
Experimental: as §1, §2, §3

B1: rabbit monoclonal anti-mouse/human Id3, clone #BCH-4/#6-1 (antibody, V domains shown)
VH: QSVEESGGRLVTPGTPLTLTCTASGFSLSNVYIHWVRQAPGKGLEWIGYISDGDTARYATWAKGRFTISKTSSTTVNLKMTSLTTEDTATYFCARQGFNIWGPGTLVTVSL
VL: AVLTQTPSPVSAAVGGTVSISCQSSQSVWNNNWLSWFQQKPGQPPKLLIYETSKLESGVPSRFKGSGSGTQFTLTISDVQCDDAATYYCLGGYWTTSDNNVFGGGTEVVVK
notes: Rabbit IgG from a rabbit hybridoma; also called m/h Id3 MoAb 6-1
Work on B1 yielded an A450 (Human Id1: Histidine [1]) of 2.12 A450, an A450 (Mouse Id2: Histidine [2]) of 2.44 A450 and an A450 (Human Id3: Histidine [3]) of 2.69 A450. It also gave an A450 (Human Id2: Histidine [4]) of 2.54 A450, an A450 (Human Id1: Histidine [5]) of 0.083 A450 and an A450 (Mouse Id1: Histidine [6]) of 0.085 A450. For the same binder, the A450 (Mouse Id2: Histidine [7]) was 0.067 A450, the A450 (Mouse Id3: Histidine) was 2.42 A450 and the A450 (Human Id3: Histidine [8]) was 1.98 A450. For the same binder, the A450 (Human Id2: Histidine [9]) was 0.058 A450, the A450 (Human Id1: Histidine [10]) was 2.13 A450 and the A450 (Mouse Id1: Histidine [11]) was 2.2 A450. The A450 (Human Id3: Histidine [12]) was 2.83 A450 and the A450 (Human Id2: Histidine [13]) was 3.23 A450.
